Like-named read-outs stand apart in the source and are kept apart here.

Data set [1] concerns HHH peptide (biotinylated histidine trimer) (synthetic). To be noted: quantum dot multivalent probe.
Data set [2] shares this test system.

For orientation: EC50 means the concentration that produces a half-maximal response. With “CAAGCAGAAGACGGCATACGAGATCATGCTTCCCCAGGGAGATGGTTTGCCGGTGGGCAGGTTTAGGGTCTGCTCGGGATTGCGGAGGAACATGCGTCGCAAACGTGTAGATCTCGGTGGTCGCCGTATCATT [P7-B1-P5 aptamer]”, the EC50 in data set [1] stood at 60 nM; in data set [2] (single aptamer on SureLight APC), 2.3 nM; in data set [2] (single aptamer on streptavidin-APC), 29.9 nM; in data set [2] (single aptamer on streptavidin-Alexa Fluor 647), 28 nM.

Values taken from US20220162684.
